In patent US20230406924A1:

Biological target: Mouse TREM-1 analyte (in house, his tagged) (mouse) (UniProt Q9JKE2)
Test: SPR (Biacore T200, 25 C), MAB1187 captured on anti rat Fc, his tagged mouse TREM-1 as analyte, 1:1 model

UniProt Q9JKE2, sequence (Q9JKE2 21-202 limits assumed): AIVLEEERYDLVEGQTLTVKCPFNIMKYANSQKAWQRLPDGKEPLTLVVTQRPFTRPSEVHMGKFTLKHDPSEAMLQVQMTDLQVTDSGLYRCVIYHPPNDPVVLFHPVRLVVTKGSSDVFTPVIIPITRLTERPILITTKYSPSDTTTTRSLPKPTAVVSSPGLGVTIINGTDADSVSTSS

Kd: 26 nM | koff: 0.0051 s⁻¹ | kon: 200000 M⁻¹ s⁻¹
Substance: MAB1187, anti-mouse TREM1 monoclonal antibody (R&D Systems, clone 174031)
